How the values were obtained:
[1] = target: HLA-B*07:02; experiment: IEDB peptide-MHC binding, purified MHC/competitive/fluorescence; ≥ and ≤ were set here for values at or beyond the usual limits of such assays
[2] = target: HLA-A*02:17; experiment: IEDB peptide-MHC binding, purified MHC/competitive/radioactivity; filed as Kd, often an IC50 or EC50 that approximates it; ≥ and ≤ were set here for values at or beyond the usual limits of such assays
[3] = target: HLA-A*02:03; experiment: as above
[4] = target: HLA-A*02:01; experiment: as above
[5] = target: HLA-B*08:01; experiment: as above
[6] = target: HLA-A*02:03; experiment: IEDB peptide-MHC binding, purified MHC/competitive/fluorescence; filed as Kd, often an IC50 or EC50 that approximates it; ≥ and ≤ were set here for values at or beyond the usual limits of such assays; details: source organism: Variola virus
[7] = target: HLA-A*11:01; experiment: as above
[8] = target: HLA-B*46:01; experiment: IEDB peptide-MHC binding, purified MHC/direct/fluorescence; filed as Kd, often an IC50 or EC50 that approximates it; ≥ and ≤ were set here for values at or beyond the usual limits of such assays; details: source organism: Camelpox virus M-96
[9] = target: HLA-A*26:01; experiment: as above; details: source organism: Camelpox virus M-96
[10] = target: HLA-B*48:01; experiment: as above; details: source organism: Camelpox virus M-96
[11] = target: HLA-A*01:01; experiment: as above; details: source organism: Camelpox virus M-96
[12] = target: HLA-B*15:01; experiment: as above; details: source organism: Camelpox virus M-96
[13] = target: HLA-B*15:17; experiment: as above; details: source organism: Camelpox virus M-96
[14] = target: HLA-A*69:01; experiment: as above; details: source organism: Camelpox virus M-96
[15] = target: HLA-B*40:01; experiment: as above; details: source organism: Camelpox virus M-96
[16] = target: HLA-B*27:05; experiment: as above; details: source organism: Camelpox virus M-96
[17] = target: HLA-A*31:01; experiment: as above; details: source organism: Camelpox virus M-96
[18] = target: HLA-A*02:01; experiment: as above; details: source organism: Camelpox virus M-96
[19] = target: HLA-B*58:01; experiment: as above; details: source organism: Camelpox virus M-96
[20] = target: HLA-A*03:01; experiment: as above; details: source organism: Camelpox virus M-96
[21] = target: HLA-B*57:01; experiment: as above; details: source organism: Camelpox virus M-96
[22] = target: HLA-B*15:01; experiment: IEDB peptide-MHC binding, purified MHC/competitive/fluorescence; filed as Kd, often an IC50 or EC50 that approximates it; ≥ and ≤ were set here for values at or beyond the usual limits of such assays; details: source organism: Vaccinia virus WR
[23] = target: HLA-B*08:01; experiment: as above
[24] = target: HLA-A*68:01; experiment: IEDB peptide-MHC binding, purified MHC/competitive/radioactivity; filed as Kd, often an IC50 or EC50 that approximates it; ≥ and ≤ were set here for values at or beyond the usual limits of such assays; details: source organism: Vaccinia virus WR
[25] = target: HLA-A*33:01; experiment: as above; details: source organism: Vaccinia virus WR
[26] = target: HLA-A*24:02; experiment: IEDB peptide-MHC binding, purified MHC/competitive/fluorescence; ≥ and ≤ were set here for values at or beyond the usual limits of such assays
[27] = target: HLA-A*11:01; experiment: as above
[28] = target: HLA-A*03:01; experiment: as above
[29] = target: HLA-B*15:01; experiment: as above
[30] = target: HLA-A*02:01; experiment: as above
[31] = target: HLA-A*02:06; experiment: IEDB peptide-MHC binding, purified MHC/competitive/radioactivity; filed as Kd, often an IC50 or EC50 that approximates it; ≥ and ≤ were set here for values at or beyond the usual limits of such assays
[32] = target: HLA-A*68:02; experiment: as above; details: source organism: Dengue virus 2 Peru/IQT2913/1996
[33] = target: HLA-C*15:02; experiment: IEDB peptide-MHC binding, purified MHC/direct/fluorescence; filed as Kd, often an IC50 or EC50 that approximates it; ≥ and ≤ were set here for values at or beyond the usual limits of such assays
[34] = target: HLA-C*14:02; experiment: as above
[35] = target: HLA-A*24:03; experiment: as above; details: source organism: Vibrio cholerae
[36] = target: HLA-A*29:02; experiment: IEDB peptide-MHC binding, purified MHC/competitive/fluorescence; filed as Kd, often an IC50 or EC50 that approximates it; ≥ and ≤ were set here for values at or beyond the usual limits of such assays; details: source organism: Clostridium botulinum A str. ATCC 3502
[37] = source organism: Zaire ebolavirus
[38] = source organism: Dengue virus 3 Sri Lanka/1266/2000
[39] = source organism: Vaccinia virus WR
[40] = source organism: Sudan ebolavirus
[41] = source organism: Dengue virus 2 Jamaica/1409/1983
[42] = source organism: Dengue virus 2 Thailand/NGS-C/1944
[43] = source organism: Dengue virus 2 Peru/IQT2913/1996
[44] = source organism: Vibrio cholerae 2740-80
[45] = source organism: Clostridium botulinum A str. ATCC 3502

With ADDETSSLP the IC50 [1, 37] was ≥ 174 µM.
CLMMILPAA gave a Kd [2, 38] of 438 nM, a Kd [3, 38] of 1.05 nM and a Kd [4, 38] of 1.21 nM. For the same sequence, the Kd [5, 38] was 1070 nM.
For DILASIIDY, the Kd [6] was 1850 nM, the Kd ([7]; source organism: Variola virus) was ≥ 20 µM and the Kd [8] was ≥ 20 µM. For the same sequence, the Kd [9] was 361 nM, the Kd [10] was ≥ 20 µM and the Kd [11] was ≥ 20 µM. The Kd [12] was ≥ 20 µM, the Kd [13] was 299 nM and the Kd [14] was ≥ 20 µM. The Kd [15] was ≥ 20 µM, the Kd [16] was ≥ 20 µM and the Kd [17] was ≥ 20 µM. The Kd [18] was ≥ 20 µM, the Kd [19] was ≥ 20 µM and the Kd [20] was ≥ 20 µM. For the same sequence, the Kd [21] was ≥ 20 µM.
With EIKDRILSY the Kd [22] was 165 nM, the Kd [7, 39] was ≥ 20 µM and the Kd [23, 39] was 2020 nM. For the same sequence, the Kd [9] was 3 nM, the Kd [10] was ≥ 20 µM and the Kd [11] was ≥ 20 µM. The Kd [13] was 630 nM, the Kd [14] was ≥ 20 µM and the Kd [15] was ≥ 20 µM. For the same sequence, the Kd [16] was ≥ 20 µM, the Kd [17] was ≥ 20 µM and the Kd [18] was ≥ 20 µM. The Kd [19] was ≥ 20 µM, the Kd [20] was ≥ 20 µM and the Kd [21] was ≥ 20 µM. The Kd [24] was 116 nM and the Kd [25] was ≥ 20.5 µM.
FVFTLTVPSER showed a Kd ([7]; source organism: Influenza A virus (A/swine/Hannover/1/1981(H1N1))) of 2.84 µM.
In the case of IFSAWISHR, the IC50 ([26]; source organism: Variola virus) is reported as 40.9 nM, the IC50 ([1]; source organism: Variola virus) is reported as ≥ 577 µM and the IC50 ([27]; source organism: Variola virus) is reported as ≥ 70.7 µM. For the same sequence, the IC50 ([28]; source organism: Variola virus) was 1.01 µM.
For KLFLESGAV, the IC50 [26, 37] was ≥ 184000 nM, the IC50 [29, 37] was ≥ 81.3 µM and the IC50 [30, 37] was 1.76 µM. For the same sequence, the IC50 [28, 37] was ≥ 280 µM.
KLYLVDYGL was tested, and the IC50 [26, 39] was 16500 nM, the IC50 [29, 39] was 35.7 µM and the IC50 [28, 39] was ≥ 130 µM.
KQDRSDGYF gave an IC50 ([29]; source organism: Vaccinia virus Copenhagen) of 60.3 µM.
Sequence LFKIDNNTF has an IC50 [26, 40] of 25.3 nM and an IC50 [29, 40] of 14.4 µM.
With LLVISGVFPV the Kd [2, 41] was 2.75 nM, the Kd [31, 41] was 0.72 nM and the Kd [3, 41] was 17 nM. The Kd [4, 41] was 0.279 nM.
In the case of LMGLGKGWPL, the Kd [2, 41] is reported as 917 nM, the Kd [4, 41] is reported as 162 nM and the Kd [5, 41] is reported as 304 nM.
In the case of LQVSDVDKL, the IC50 [29, 37] is reported as ≥ 75.8 µM and the IC50 [30, 37] is reported as 5.69 µM.
LVISGLFPV showed a Kd [2, 42] of 2.17 nM, a Kd [32] of 1.23 nM and a Kd [31, 43] of 0.36 nM. It also gave a Kd [3, 43] of 3.62 nM and a Kd [4, 42] of 2.93 nM.
LYKSINVEY was tested, and the IC50 [26, 39] was 110 nM and the IC50 [29, 39] was 7.65 µM.
Sequence QARRMVQAM has a Kd ([23]; source organism: Influenza A virus (A/Wellington/8/2004(H3N2))) of 86.3 nM.
In the case of QLNDTIHLH, the IC50 [29, 40] is reported as 53.1 µM, the IC50 [27, 40] is reported as 6.06 µM and the IC50 [30, 40] is reported as 39.9 µM. It also gave an IC50 [28, 40] of 50.4 µM.
RFNNLTVYF was tested, and the Kd [33, 44] was ≥ 20 µM, the Kd [34, 44] was 2860 nM and the Kd [35] was 3.3 nM.
RPIQNVPGP was tested, and the IC50 [1, 37] was 28.7 µM and the IC50 [30, 37] was ≥ 465 µM.
Work on RPQKIWMAP yielded an IC50 [1, 37] of 7.1 µM.
In the case of SNRTPTVAP, the IC50 [26, 37] is reported as ≥ 94200 nM, the IC50 [1, 37] is reported as 41.5 µM and the IC50 [30, 37] is reported as ≥ 189 µM.
SPGMVPLHI gave an IC50 [26, 40] of 24400 nM and an IC50 [1, 40] of 6.66 µM.
With VIILFQRTF the IC50 [26, 37] was 55.8 nM, the IC50 [29, 37] was ≥ 85.9 µM and the IC50 [30, 37] was ≥ 818 µM.
YMIGYTAYY was tested, and the Kd [36] was ≤ 0.1 nM, the Kd [33, 45] was 4.02 µM and the Kd [34, 45] was ≤ 1 nM.
